Assay: yeast display, Sf9 membrane polyspecificity reagent, FACS + sequencing; frameworks hold sequencing errors
Summary of the method: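 Nanobodies came from a synthetic yeast display library in Saccharomyces cerevisiae BJ5465, induced with galactose for 36–48 hours and stained for 1 hour at 4 °C with 10% biotinylated, detergent-solubilized Sf9 membrane reagent. Cells were enriched on streptavidin microbeads and then FACS-sorted, with low and high (top ~1%) gates set on anti-HA fluorescence for expression and streptavidin fluorescence for reagent binding. Each polyreactivity label reflects the gate a clone came from. Genes were amplified by colony PCR, sequenced by MiSeq 2 × 250 and filtered by CDR length.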

Row | Sequence | polyreactivity (PSR sort gate)
1 | QVQLVESGGGLVQAGGSLRLSCAASGSTFLNYAMGWYRQAPGKERELVAAISGRGGRTYYADSVKGRFTISRDNAKNTVYLQMNSLTPEDTAVYYCAARKWVSYTSYDYWGQGTQVTVSS | high polyreactivity
2 | QVQLVESGGRLVQAGGSLRLSCAASGSTFTLYAMGWYRQAPGKERELVAAITWRGGSTFYADSVKGRFTISRDNAKNSVYLQMNSLKPEDTAVYYCAADYYSYVVGRIYYWGQGTQVNVSS | high polyreactivity
3 | QVQLVESGGGLVQAGGSLRLSCAPSGGTFVSYVMGWYRQAPGKERELVAAISVSGGRTYYADSVKGRFTISRDNAKNTVYLQMNSLKPEDTAVYYCAADSVVVGSPGNDYWGQGTQVTVSS | high polyreactivity
4 | QVQLVESGGGLVQAGGSLRLSCAASGIIFYDYAMGWYRQAPGKERELVAAITSGGSTNYADSVKGRFTISRDNAKNTVYLQMNSLKPEDTAVYYCAATYWSWISLRFYWGQGTQVTVSS | low polyreactivity
5 | QVQLVESGGGLVKAGGSLRLSCAASGIIFSFYTMGWYRQAPGKQRELVAAITWSGGSTYYADSVKGRFTISRDNAKNTVYLQMNSLKPEDTAVYFCNARYPWRKRSQGYSWGQGTQVTVSS | low polyreactivity
6 | QVQLVESGGGLVQAGGSLRLSCAASGSTFTAYAMGWYRQAPGKERELVAAITSSGGGTYYADSVKGRFTISRDNAKNPVYLQMNSLKPEDTAVYYCAAVPGYGYYNYSDFDYWGQGTQVTVSS | low polyreactivity
7 | QVQLVESGGGLVQAGGSLRLSCAASGSIFLYYAMGWYRQAPGKERELVATIRGSGSSTYYADSVKGRFTISRDNAKNTVYLQMNSLKPEDTAVYYCAAKGYRWFRHGGYYFKFDYWGQGTQVTVSS | high polyreactivity
8 | QVQLVESGGGLVQAGGSLRLSCAASGFTFKYYSMGRYRQAPGKERELVAAISRGGRTNYADSVKGRFTISRDNAKNTVYLQMNSLKPEDTAVYYCAADGIYALFFTSGGIWFDYWGEGTQVTVSS | low polyreactivity
9 | QVQLVESGGGLVQAGGSLRLSCAASGSTFSSLIMGWYRQAPGKERELVAAISRSGGRTYYADSVKGRFTISRDNAKNTVYLQMNSLIPEDTAVYYCAADYVSVDRIRYGYCGQGTQVTVSS | high polyreactivity
10 | QVQLVESGGGLVQAGGSLRLSCAASGIIFGRYTMGWYRQAPGKERELVAAITSSGITYYADSVKGRFTISRDNAKNTVYLQMNSLKPEETAVYYCNADYSIPGYYWPYDYWGQGTQVTVSS | low polyreactivity
11 | QVQLVESGGGLVQAGGSLRLSCAASGSIFFSYAMGWYRQAPGKERELVATITTSGGRTRYADSVKGRFTISRDNAKNTVYLQMNSLKPEDTAVYYCAVRGHFFTYGYWGQGTQVTVSS | high polyreactivity
12 | QVQLVESGGGLVQAGGSLRLSCAASGFIFWSYAMGWYRQERGNEREWVAAISWSGGRTYYADSVKGRFTISRDNAKNTVYLQMNSLKPEDTAVYYCAAVKRDSSQYPALDYWGQGTQVTVSS | high polyreactivity
13 | QVQLVESGGGLVQAGGSLRLSCAASGRTFGGNTMGWYRQAPGKERELVAAISFSGGSTYYADSVKGRFTISRDNAKNTVYLQMNSLKPEDTAVYYCAKDPITATTLDERVYYWGQGTQVTVSS | low polyreactivity
14 | QVQLVESGGGLVQAGGSLRLSCAASGFTFVYYVMGWYRQAPGKERELVAAINAGGGSTYYADSVKGRFTISRDNAKNTVYLQMNSLKPEDTAVYYCNARVRVRLGRNWSSYYYCGQGTQVTVSS | high polyreactivity
15 | QVQLVESGGGLVQAGGSLRLSCAASGLIFYGYAMGWYRQAPGKERELVAAISSGGSTNYADSVKGRFTISRDNAKNTVYLQMNSLKPEDTAVYYCAAKPIFYRTILYYYWGQGTQVTVSS | high polyreactivity
16 | QVQLVESGGGLVQAGGSLRLSCAASGSIFGNYAMGWYRQAPGKERELVAGISKSGGRTYYADSVKGRFTISRDNAKITVYLQMNRLKPEDTAVYYCNALVTRYQSLDRLGDYWGQGTQVTVSS | high polyreactivity
17 | QVQLVESGAGLVQAGGSLRISCAASGSIFTNAMGWYRQAPGKERELVAAISSSGGSTYYADSVKGRFTISRDNANNTVYLQMNSLKPEDTAVYYCAADHYGGRDYWGQGTQVTVSS | low polyreactivity
18 | QVQLVESGGGLVQAGGRLRLSCAASGSTFGGNAMGWSRQAPGKERELVATISNSGGRTYYADSVKGRFTISRDNAKNTVYLQMNSLKPEDTAVYYCAADHPAFGPGYSFDYWGQGTQVTVSS | low polyreactivity
19 | QVQLVESGGGLVQAGGSLRLSCAASGSTFGYYAMGWYRQAPGKERELVAAITASGGGTYYADSVKGRFTISRDNAKNTFYLQMNSLKPEDTEVYYCNRGYDYWGQGTHVTVSS | low polyreactivity
20 | QVQLVESGGGLVQAGGSLRLSCAASGSIFLNYAMGWYRQAPGKERELVAAISYRVGRTYYADSVKGRFTISRDNAKNTVYLQMNSLKPVDTAVYYCAADSRSPGNDYWGQGTQVTVSS | high polyreactivity
21 | QVQLVESGGGLVQAGGSLRLSCAASGFTFIFNAMGWNRQAPGKERELVATISSGGSTYYADSVKGRFTISRDNAKNTVYLQMNSLKPEDTAVYYCNTDDVGGYDYWGQGTQVTLSS | low polyreactivity
22 | QVQLVESGGGLVQAGGSLRLSCAASGSIFAGYAMGWYRQAPGKERELVAAISSSGSRTYYADSVKGRFTISRDNAKNTVYLHMNSLKPEDTAVYYCATQSWVRYGQPEFDYWGQGTQVTVSS | high polyreactivity

Row | Sequence | polyreactivity (PSR sort gate)
23 | QVQLVESGGGLVQAGGSLRLSCAASGSTCSRNAMGWYRQAPGKERELVAAINYSGGITYYADSVKGRFTISRDNAKNTVYLQMNSLKPEDTAVYYGAAVATNVPTHGRPSRRAYDYWGQGTQVTVSS | low polyreactivity
24 | QVQLVESGGGLVQAGGSLRLSCAASGSIFLTYDMGWYRQAPGKERELVAAITGSGDSTYYADSVKGRFTISRDNAKNTVYLQMNSLKPEDTAVYYCNADGPSTPWVDYGYWGQGTQVTVSS | low polyreactivity
25 | QVQLVESGGGLVQAGGSLRLICAASGSTFRNYAMGWYRQAPGKEREFVAAITWSGGRTYYADSVKGRFTISRDNAKNTVYLQMNSLKPEDTAVYYCAARYRRGYDYWGQGTQVTVSS | high polyreactivity
26 | QVQLVESGGGLVQAGGSLRLSCAASGRISTYYTMGWYRQAPGKERELVAAISWSGTSTYYADSVKGRFTISRDNAKNTVYLQMNSLKPEDTAVYYCNARWRYPLDSVTDDYWGQGTQVTVSS | high polyreactivity
27 | QVQLVESGGGLVQAGGRLRLSCADSGSTFLYNAMGWYRQAPGKERELVAAITSDGSTSYADSVKGRFTISRDNAKNTVYLQMNSLKPEDTALYYSAAYGFQHLSSLPFSRHNYWGQGTQVTVSS | low polyreactivity
28 | KVQLVESGGGLVQAGGSLRLSCAASGLTFSFYAMGWYRQAPGKERELVAAITYSGDSTYYADSVKGRFTISRDNAKNTVYLQLNSLKPEDTAVYYCAAYVYQTPHSLHIYEYWGQGTQVTVSS | low polyreactivity
29 | QVQLVESGGGLVQAGGSLRLSCAASGSIFQYYGMGWYRQAPGKERELVAAISRGGSTNYADSVKGRFTISRDNAKNTVYLQMNSLKPEDTAVYYCNARTYRKAYSGYNYWGQGTQVTVSS | high polyreactivity
30 | QVQLVESGGGLVQSGGSIRLSCAASGSTFLWYCMGWYRQAPGKERELVASISRGGGTDYADSVKGRFTISRDNAKNTVYLQMNSLKPEDTAVYYCAATGVNRYDHWGQGTHVTVSS | low polyreactivity
31 | QGQLVESGGGLVQAGGSLRLSCAASGSIFWDNVMGWSRQAPGKERELVADIDSWDGGSTYYADSVKGRFTISRDNAKNTVYLQMHSRKPEDTAVYYCNTDVLWWRGGDDFWGQGTQVTVSS | low polyreactivity
32 | QFQLVESGGGLVQAGGSLRLSCAASGFIFYRNAMGGYRQAPGKERELVAGITSGGRPYYADSVKGRFTISRDNAKNTVYLQMNCLKPEDTGVYYCAARRSRPTYYSTGVNYWGQGTQVTVSS | high polyreactivity
33 | QVQLVESGGGLVQAGGSLRLSCAASGSTFRIYAMGWYRQAPGREREFVAAITWTGGSTYYADSVKGRFTISRDNAKNTVYLQMNSLKPEDTADYYCAARQLSDYYWGQGTQVTVSS | high polyreactivity
34 | QVQLVESGGGLVQAGGSLRISCAASGRIFGFNAMGWYRQAPGKERELVAAISRTSSSTYYADSVKGRFTISRDNAKNTVYLQMNSLKPEDTAVYYCATRYFTHGKYDYWGQGTQVTVSS | high polyreactivity
35 | QVQLVESGGGLVQAGGSLRLSCAASGSTFYSNAMGWYRQAPGKERELVAAISSTGSSTYYADSVKGRFTISRDNAKNTVYLQMNSLKPEDTAVYYCATDYYQSYWPATYDYWGQGTQVTVSS | low polyreactivity
36 | QVQLVESGGGLVQAGGSLRLSCAASGSIITVNAMGWYRQAPGKEREFVAGITSIGGRTYYADSVMGRFTISRDNAKNTVYLQMYSLKPEDTAVYYCNKRSYRARYDYWGQGTQVTVSS | high polyreactivity
37 | QVQLVESGGGLVQAGGSLRLTCAASGLTFAGYAMGWYRQAPGKERELVAYITTSGGSTHYADSVKGRFTISRDNAKNTVYLQMNSLKPEDTAVYYCAAEGYPGDNELIGAFDYWGQGTQVTVSS | low polyreactivity
38 | QVQLVESGGGLVQAGGSLRLSCAASGRIFFANTMGWYRQAPGKERELVAAISLSSGTTYYADSVKGRFTISRDNAKNTVYLQMNSLKPDETAVYYCAARGYSHVASRLYYYWGQGTQVTVSS | high polyreactivity
39 | QVQLVESGGGLVQAGGSLRLSCAASGRTFTRYAMGRYRQAPGKERELVASISGSGGRTNYADSVKGRFTISRDNAKNTVYLQMNSLKPEDTAVYYCAARYRTWFGYWGQGTQVTVSS | high polyreactivity
40 | QVQLVESGGGLVQAGGSLRLSCAASGSTFSPYAMGWYRQAPGKERELVAAITSSGGSTYYADSVKGRFTISRDNAKNTVYLQMNSLKPEDTAVYYCAAEGYYTSTYDLYDYYWGQGTQVTVSS | low polyreactivity
41 | QVQLVESGGGLVQAGGSLRFSCAASGFTFVYYVMGWYRQAPGKERELVAAINAGGGSTYYADSVKGRFTISRDNAKNTVYLQMNSLKPEDTAVYYCNARVRLGRNWSSYYYWGQGTQVTVSS | high polyreactivity
42 | QVQLVESGGGLVQAGGSLRLSCAASGRTFGLNAMGWYRQAPGKERELVAAISSSGGSTYYADSVKGRFTISRDNAKNTVYLQMNSLKPEDTAVYYSAKVLYLYGTAYYYWGQGTEVTVSS | high polyreactivity
43 | QVQLVESGGGLVQAGGSLRLSCAASGSIFPGYAMGWSRQAPEKERELVAAISRRGGSTYYADSVKGRFTISRDNAKNTVYLQMNSLKPEDNAVYYCAKDGTGAGTYDYWGQGTKVTVSS | low polyreactivity

— the nanobody polyreactivity screen of Harvey et al. (2022)
